According to article doi:10.1101/2021.06.21.449279:

What was measured:
[1] = molecular target: CwlDΔ25-His6 (C. difficile); test: pull-down
[2] = molecular target: GerSΔ22 (untagged) (C. difficile); test: crystal structure
[3] = molecular target: CwlD R169Q-His6 (C. difficile); test: pull-down
[4] = molecular target: CwlD R169D-His6 (C. difficile); test: pull-down
[5] = molecular target: CwlD_(E199A)-His6 (C. difficile); test: SEC
[6] = molecular target: CwlD_(H49A)-His6 (C. difficile); test: SEC
[7] = molecular target: CwlDΔ25-His6 (C. difficile); test: SEC
[8] = molecular target: CwlD_(E65A)-His6 (C. difficile); test: SEC
[9] = molecular target: GerSΔ22-His6 (C. difficile); test: SEC
[10] = molecular target: FLAG-tagged CwlD_(R169D) (C. difficile); test: co-IP
[11] = molecular target: FLAG-tagged CwlD_(H49A) (C. difficile); test: co-IP
[12] = molecular target: CwlD_(E199A)-FLAG (C. difficile); test: co-IP

Substance: GerS D106R (untagged) (domain or fragment)
- reduction of GerS co-purification against the wild-type complex [1]: 90%

Substance: GerSΔ22 (untagged) (domain or fragment)
- stoichiometry N [2]: 2
- reduction of GerS co-purification against the wild-type complex [3]: 90%
- reduction of GerS co-purification against the wild-type complex [4]: 90%
- stoichiometry N [5]: 1
- stoichiometry N [6]: 1
- stoichiometry N [7]: 1
- stoichiometry N [8]: 1

Substance: GerSΔ22-His6 (domain or fragment)
- stoichiometry N [9]: 2

Substance: CwlDΔ25-His6 (domain or fragment)
- stoichiometry N [7]: 2

Substance: cleaved form of GerS (untagged, in sporulating C. difficile) (natural protein)
- fold reduction of GerS pulled down against wild-type FLAG-tagged CwlD [10]: 5 fold
- fold reduction of GerS pulled down against wild-type FLAG-tagged CwlD [11]: 5 fold
- decrease of the interaction against the wild-type CwlD:GerS complex [12]: 40%

Substance: GerS D106A (untagged) (domain or fragment)
- reduction of GerS co-purification against the wild-type complex [1]: 90%
